{"source": "patent US20220213176A1", "about": "(SHANGHAITECH UNIVERSITY, published 2022)", "target": "SARS-CoV-2 spike receptor binding domain, wild-type (S-RBD) (SARS-CoV-2, UniProt P0DTC2 319-541)", "experiment": "BLI (Octet RED96), biotin S-RBD on SA sensor, 1:1 fit"}
{"binder": "S-E6 trimer (T4F) (other, also called trimer S-E6; trimeric S-E6) heavy: QVTLRESGPGLVKPSETLSLTCAVSGGSLSSVNYYWSWIRQHPGKGLEWIGYIYYSGSTNYNPSLKSRVTMSLDTSKNQFSLKLSSVTAADTAVYYCATPGAIMGALHIWGQGTLVTVSSASTKGPSVFPLAPSSKSTSGGTAALGCLVKDYFPEPVTVSWNSGALTSGVHTFPAVLQSSGLYSLSSVVTVPSSSLGTQTYICNVNHKPSNTKVDKKVEPPKSGGGGSGGGGSGGGGSPGSGYIPEAPRDGQAYVRKDGEWVLLSTFLGHHHHHH light: QAVLTQPSSASSTPGQRVIISCSGSSSNIGSNTVSWYQQVPGAAPKLLIYFDYRRPSGVPDRFSGTRSGTSASLGISGLQSEDEADYYCAAWDDSLSAWVFGRGTKLTVLGGLGGLVDYKGQPKAAPSVTLFPPSSEELQANKATLVCLISDFYPGAVTVAWKADSSPVKAGVETTTPSKQSNNKYAASSYLSLTPEQWKSHRSYSCQVTHEGSTVEKTVAPTECS", "values": [{"measurement": "Kd", "result": 10.1, "unit": "pM"}]}
